Source: US20230103407A1 (UNIVERSITY OF CINCINNATI, published 2023)
Blank lines part the entries; values can stand above or below the binder they belong to.

Legend:
[1] = target: T1, acid β-glucosidase (GCase), Velaglucerase alfa (human, UniProt P04062 40-536, Chain 1 is a glycoprotein with N-linked, mannose-terminated oligosaccharides, which the letters do not carry.); assay: microscale thermophoresis (MST); unlabelled GCase titrated against NBD-PS labelled SapC-DOPS, CP buffer pH 5.6
T1 construct: also called free GCase; human GCase
T1 sequence: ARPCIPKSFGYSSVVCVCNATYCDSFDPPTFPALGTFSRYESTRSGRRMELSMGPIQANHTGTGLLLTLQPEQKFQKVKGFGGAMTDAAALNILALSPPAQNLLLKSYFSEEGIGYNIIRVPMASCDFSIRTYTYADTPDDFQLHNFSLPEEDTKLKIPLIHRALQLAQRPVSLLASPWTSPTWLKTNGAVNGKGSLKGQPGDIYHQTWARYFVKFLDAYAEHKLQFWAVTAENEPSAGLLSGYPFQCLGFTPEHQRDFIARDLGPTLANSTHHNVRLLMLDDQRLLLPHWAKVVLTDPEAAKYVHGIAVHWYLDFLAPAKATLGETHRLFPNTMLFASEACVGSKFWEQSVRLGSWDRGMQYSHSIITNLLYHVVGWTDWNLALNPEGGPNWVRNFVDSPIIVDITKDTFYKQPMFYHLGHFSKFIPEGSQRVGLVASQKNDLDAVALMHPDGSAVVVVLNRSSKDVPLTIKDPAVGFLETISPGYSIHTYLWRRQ
Description: (§1) Binding was determined by measuring Kd using a Microscale Thermophoresis (MST) assay system on a Monolith NT.115. MicroScale NanoTemper. Temperature related intensity change (TRIC) together with thermophoresis contribution to the variation of fluorescence intensity was determined. NBD-PS [2-(4-nitro-2,1,3-benzoxadiazol-7-yl)aminoethyl-phophatidylserine (Avanti Polar Lipids Inc., Alabaster, Ala.) was used to fluorescently label DOPS. DOPS in chloroform was mixed with NBD-PS in DMSO at the molar ratio of 3:1. The organic solvent was evaporated under nitrogen gas. Upon suspension in CP buffer (0.1 M Citrate Phosphate buffer, pH 5.6), the mixture solutions were bath sonicated for 30 mins at 4° C. This preparation was tested with SapC or SapB to measure the Kd for binding to DOPS. […]
(§2) The final concentration of the reaction mixtures ranged from GCase/SapC-DOPS-NBD of 1562 nM/7500 nM for the 1st point to 0.024 nM/7500 nM for the 16th point (FIG. 16, Table 3). […] The thermophoresis time was 30 secs with dual reading setting (LED: 20%/40%; MST: 40%/50%). […] The raw data were analyzed to determine Kd values and plotted using MO Affinity Analysis v2.1.3 software (NanoTemper, München, Germany).

[2] = target: T1, acid β-glucosidase (GCase), …; assay: microscale thermophoresis (MST), NBD-PS labelled vesicles, CP buffer pH 5.6
Description: as §1, §2

Kd [1]: 29.4 nM
B1: SapC-DOPS nanovesicles (saposin C with dioleoylphosphatidylserine) (other)
chain: SDVYCEVCEFLVKEVTKLIDNNKTEKEILDAFDKMCSKLPKSLSEECQEVVDTYGSSILSILLEEVSPELVCSMLHLCSG

binding result [2]: no binding
B2: saposin B (SapB)-DOPS (other, UniProt P07602 195-273, looked up)
chain: GDVCQDCIQMVTDIQTAVRTNSTFVQALVEHVKEECDRLGPGMADICKNYISQYSEIAIQMMMHMQPKEICALVGFCDE
notes: SapB formulated with DOPS at a 1:7 molar ratio and labelled with NBD-PS
